Data on one molecule can be found in patent US12534531 (MacroGenics, dated 2026).

For assay [1], the target named is T1, human PD-1 expressed on the surface of cells (NSO cells expressing human PD-1; MNFAT-luc2/PD-1 Jurkat cells) (human, UniProt Q15116 21-288).
T1 construct: also called cell surface PD-1; PDCD1 transfected NSO cells expressing PD-1
As to the kind of experiment: FACS saturation binding to NSO cells expressing PD-1; SM; SD 0.5742.

Assay [2] has as its target T2, human LAG-3 expressed on NSO cells (human, UniProt P18627 29-525).
T2 sequence: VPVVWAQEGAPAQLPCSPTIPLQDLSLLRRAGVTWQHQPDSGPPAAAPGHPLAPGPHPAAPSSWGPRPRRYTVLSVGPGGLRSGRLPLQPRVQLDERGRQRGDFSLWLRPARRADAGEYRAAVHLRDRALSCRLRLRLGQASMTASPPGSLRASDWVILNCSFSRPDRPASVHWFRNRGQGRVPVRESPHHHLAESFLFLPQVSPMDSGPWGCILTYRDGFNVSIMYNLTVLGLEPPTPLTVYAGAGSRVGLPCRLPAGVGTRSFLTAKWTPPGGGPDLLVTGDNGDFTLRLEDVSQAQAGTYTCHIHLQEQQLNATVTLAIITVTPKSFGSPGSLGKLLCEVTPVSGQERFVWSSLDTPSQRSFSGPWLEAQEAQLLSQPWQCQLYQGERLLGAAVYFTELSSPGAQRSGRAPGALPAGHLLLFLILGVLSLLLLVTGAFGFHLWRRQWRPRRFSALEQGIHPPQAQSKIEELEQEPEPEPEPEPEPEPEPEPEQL
The assay can be described thus: FACS saturation binding to NSO cells expressing LAG-3; SM; SD 0.8075.

Assay [3] addresses T1, human PD-1 expressed on the surface of …. As to the kind of experiment: FACS: inhibition of sPD-L1 binding to PD-1 on NSO cells; SM; SD 0.3307.
For assay [4] the target is unchanged. As to the kind of experiment: FACS: inhibition of sPD-L2 binding to PD-1 on NSO cells; SM; SD 0.7736.
Assay [5] concerns the target T3, biotinylated-soluble human LAG-3-Fc fusion protein (human, UniProt P18627 23-450, biotinylated (site not stated)).
T3 construct: whole entry named; also called shLAG-3; shLAG-3-Fc; not shown: Fc
T3 sequence: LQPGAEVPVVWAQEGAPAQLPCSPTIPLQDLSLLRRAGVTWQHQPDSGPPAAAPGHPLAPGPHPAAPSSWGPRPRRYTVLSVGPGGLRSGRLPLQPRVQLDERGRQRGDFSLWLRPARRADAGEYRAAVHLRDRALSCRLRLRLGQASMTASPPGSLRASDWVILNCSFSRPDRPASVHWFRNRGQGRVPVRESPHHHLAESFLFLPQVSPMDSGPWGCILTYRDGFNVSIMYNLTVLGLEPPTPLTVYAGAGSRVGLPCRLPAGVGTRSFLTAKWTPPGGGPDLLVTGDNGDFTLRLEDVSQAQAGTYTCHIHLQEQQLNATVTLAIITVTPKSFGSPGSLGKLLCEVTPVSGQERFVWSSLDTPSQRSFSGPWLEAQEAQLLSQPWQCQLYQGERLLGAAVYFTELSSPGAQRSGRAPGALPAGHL
The assay can be described thus: FACS: inhibition of shLAG-3-Fc binding to MHC II on Daudi cells (column head prints EC50); SM; SD 2.9177. A general note: In flow cytometry, cells or beads pass a laser one at a time.

T1 sequence (Q15116 21-288): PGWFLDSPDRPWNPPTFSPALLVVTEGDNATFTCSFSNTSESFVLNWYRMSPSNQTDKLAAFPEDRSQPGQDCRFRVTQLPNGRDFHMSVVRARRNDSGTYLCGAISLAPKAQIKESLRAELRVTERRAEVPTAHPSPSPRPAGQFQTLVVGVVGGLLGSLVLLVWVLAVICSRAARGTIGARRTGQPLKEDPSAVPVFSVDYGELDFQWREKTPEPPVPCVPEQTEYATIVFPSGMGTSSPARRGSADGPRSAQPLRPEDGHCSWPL

B1: DART E (bispecific antibody, human IgG4 S228P, kappa)
chain 1: DIVMTQTPLSLSVTPGQPASISCKSSQSLLHSDAKTYLNWLLQKPGQPPERLIYLVSELDSGVPDRFSGSGSGTDFTLKISRVEAEDVGVYYCWQGTHFPYTFGGGTKVEIKGGGSGGGGQVQLVQSGAEVKKPGASVKVSCKASGYSFTSYWMNWVRQAPGQGLEWIGVIHPSDSETWLDQKFKDRVTITVDKSTSTAYMELSSLRSEDTAVYYCAREHYGTSPFAYWGQGTLVTVSSLGGGSGASTKGPSVFPLAPCSRSTSESTAALGCLVKDYFPEPVTVSWNSGALTSGVHTFPAVLQSSGLYSLSSVVTVPSSSLGTKTYTCNVDHKPSNTKVDKRVESKYGPPCPPCPAPEFLGGPSVFLFPPKPKDTLYITREPEVTCVVVDVSQEDPEVQFNWYVDGVEVHNAKTKPREEQFNSTYRVVSVLTVLHQDWLNGKEYKCKVSNKGLPSSIEKTISKAKGQPREPQVYTLPPSQEEMTKNQVSLTCLVKGFYPSDIAVEWESNGQPENNYKTTPPVLDSDGSFFLYSRLTVDKSRWQEGNVFSCSVMHEALHNHYTQKSLSLSLG
chain 2: EIVLTQSPATLSLSPGERATLSCRASESVDNYGMSFMNWFQQKPGQPPKLLIHAASNQGSGVPSRFSGSGSGTDFTLTISSLEPEDFAVYFCQQSKEVPYTFGGGTKVEIKGGGSGGGGQVQLVQSGAEVKKPGASVKVSCKASGYTFTNYGMNWVRQAPGQGLEWMGWINTYTGESTYADDFEGRFVFSMDTSASTAYLQISSLKAEDTAVYYCARESLYDYYSMDYWGQGTTVTVSSLGGGSGRTVAAPSVFIFPPSDEQLKSGTASVVCLLNNFYPREAKVQWKVDNALQSGNSQESVTEQDSKDSTYSLSSTLTLSKADYEKHKVYACEVTHQGLSSPVTKSFNRGEC
For the molecule B1, the EC50 (as a rule, the concentration that produces a half-maximal response) in assay [1] is 3220 nM; in assay [2], 925 nM. The IC50 (as a rule, the concentration that inhibits the measured activity by half) in assay [3] came to 1650 nM; in assay [4], 2950 nM; in assay [5] it was 3270 nM.
